Results published in the supplement of paper PMC7877785.
± gives the uncertainty stated by the source.

Experiment: self-splicing fitness, log relative to wild type (ln ratio); higher = more splicing; Tetrahymena group I intron in knt gene, E. coli kanamycin selection, DiMSum; sequences stand for … in CUCUCU…GGAGGGAAAAGUUAUCAGGCAUGCACCUGGUAGCUAGUCUUUAAACCAAUAGAUUGCAUCGGUUUAAAAGGCAAGACCGUCAAAUUGCGGGAAAGGGGUCAACAGCCGUUCAGUACCAAGUCUCAGGGGAAACUUUGAGAUGGCCUUGCAAAGGGUAUGGUAAUAAGCUGACGGACAUGGUCCUAACCACGCAGCCAAGUCCUAAGUCAACAGAUCUUCUGUUGAUAUGGAUGCAGUUCACAGACUAAAUGUCGGUCGGGGAAGAUGUAUUCUUCUCAUAAGAUAUAGUCGGACCUCUCCUUAAUGGGAGCUAGCGGAUGAAGUGAUGCAACACUGGAGCCGCUGGGAACUAAUUUGUAUGCGAAAGUAUAUUGAUUAGUUUUGGAGUACUCGUGGUCG
Method in brief: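 Fitness was computed with DiMSum as the error-weighted combination of replicate fold changes, kanamycin versus none, each normalised to wild type. The library randomised all eight intron nucleotides of the P1ex region, with the intron placed in the knt kanamycin-resistance gene on pET-22b(+) in E. coli BL21(DE3). Six replicate transformations were grown overnight at 37°C or 30°C on LB agar with or without 25 μg/mL kanamycin, plus 100 μg/mL carbenicillin, 50 μM IPTG and 0.2% rhamnose. Pooled colonies were amplicon-sequenced on an Illumina HiSeq 2500.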

| Sequence | self-splicing fitness (ln) (30 °C) | self-splicing fitness (ln) (37 °C) |
| --- | --- | --- |
| GAAUAGCAAUAUUACGGGCA | -1.19 ± 0.083 | -1.2 ± 0.085 |
| GAAUAGCAAUAUUACGGGUC | -1.89 ± 0.21 | -2.68 ± 0.33 |
| GAAUAGCAAUAUUACGGUGC | -2.18 ± 0.22 | -2.78 ± 0.27 |
| GAAUAGCAAUAUUACGUAAA | -1.94 ± 0.13 | -2.03 ± 0.14 |
| GAAUAGCAAUAUUACGUAGG | -3.4 ± 0.15 | -2.68 ± 0.2 |
| GAAUAGCAAUAUUACGUAUG | -1.56 ± 0.12 | -1.04 ± 0.18 |
| GAAUAGCAAUAUUACGUCUA | -1.12 ± 0.12 | -0.42 ± 0.13 |
| GAAUAGCAAUAUUACGUGAC | -3.51 ± 0.28 | -1.43 ± 0.2 |
| GAAUAGCAAUAUUACGUGGC | -3.67 ± 0.27 | -1.34 ± 0.17 |
| GAAUAGCAAUAUUACGUUAC | -1.97 ± 0.13 | -1.6 ± 0.21 |
| GACAAGCAAUAUUACGAACC | -1.06 ± 0.14 | -0.514 ± 0.17 |
| GACAAGCAAUAUUACGAAUC | -2.49 ± 0.12 | -2.53 ± 0.16 |
| GACAAGCAAUAUUACGACCA | -0.459 ± 0.12 | -0.806 ± 0.13 |
| GACAAGCAAUAUUACGACGA | -0.615 ± 0.067 | 0.296 ± 0.095 |
| GACAAGCAAUAUUACGACGC | 0.305 ± 0.1 | 0.643 ± 0.13 |
| GACAAGCAAUAUUACGACGG | -3.3 ± 0.2 | -2.64 ± 0.17 |
| GACAAGCAAUAUUACGACUG | -0.381 ± 0.056 | -0.0494 ± 0.092 |
| GACAAGCAAUAUUACGAGGC | -2.4 ± 0.16 | -2.76 ± 0.32 |
| GACAAGCAAUAUUACGAUAG | -2.76 ± 0.22 | -0.828 ± 0.12 |
| GACAAGCAAUAUUACGCCGA | -1.19 ± 0.12 | -0.179 ± 0.14 |
| GACAAGCAAUAUUACGCCGG | -2.63 ± 0.32 | -1.92 ± 0.28 |
| GACAAGCAAUAUUACGCUUG | -4.51 ± 0.29 | -2.76 ± 0.27 |
| GACAAGCAAUAUUACGGCAA | -0.787 ± 0.075 | -0.384 ± 0.074 |
| GACAAGCAAUAUUACGGCCU | -0.429 ± 0.082 | -0.314 ± 0.1 |

| Sequence | self-splicing fitness (ln) (30 °C) | self-splicing fitness (ln) (37 °C) |
| --- | --- | --- |
| GACAAGCAAUAUUACGGGAG | -3.18 ± 0.11 | -1.52 ± 0.1 |
| GACAAGCAAUAUUACGGUGU | -3.98 ± 0.13 | -1.9 ± 0.11 |
| GACAAGCAAUAUUACGUAGC | -1.48 ± 0.069 | -0.611 ± 0.076 |
| GACAAGCAAUAUUACGUAUU | -2.83 ± 0.1 | -1.66 ± 0.11 |
| GACAAGCAAUAUUACGUCCU | -1.99 ± 0.27 | -0.755 ± 0.19 |
| GACAAGCAAUAUUACGUCUC | -4.15 ± 0.27 | -1.18 ± 0.19 |
| GACAAGCAAUAUUACGUGGA | -3.18 ± 0.16 | -1.42 ± 0.1 |
| GACAAGCAAUAUUACGUUGU | -3.54 ± 0.12 | -2.81 ± 0.14 |
| GACCAGCAAUAUUACGAAAU | -1.34 ± 0.093 | -0.476 ± 0.098 |
| GACCAGCAAUAUUACGACUC | -0.264 ± 0.06 | 0.162 ± 0.077 |
| GACCAGCAAUAUUACGAGAG | -3.61 ± 0.2 | -1.51 ± 0.13 |
| GACCAGCAAUAUUACGAGCU | -2.91 ± 0.14 | -1.41 ± 0.15 |
| GACCAGCAAUAUUACGAUAU | -0.781 ± 0.072 | -0.235 ± 0.086 |
| GACCAGCAAUAUUACGCAGU | -1.56 ± 0.067 | -0.904 ± 0.09 |
| GACCAGCAAUAUUACGCCAA | -2.99 ± 0.22 | -1.45 ± 0.15 |
| GACCAGCAAUAUUACGCCCC | -1.35 ± 0.17 | -0.908 ± 0.17 |
| GACCAGCAAUAUUACGCCGG | -2.59 ± 0.16 | -2.58 ± 0.29 |
| GACCAGCAAUAUUACGCCUU | -0.277 ± 0.07 | 0.293 ± 0.087 |
| GACCAGCAAUAUUACGCGAG | -1.37 ± 0.16 | -0.897 ± 0.13 |
| GACCAGCAAUAUUACGCGAU | -2.28 ± 0.11 | -1.17 ± 0.093 |
| GACCAGCAAUAUUACGCUGC | -3.73 ± 0.22 | -1.32 ± 0.15 |
| GACCAGCAAUAUUACGGAAC | -0.88 ± 0.098 | -0.504 ± 0.11 |
| GACCAGCAAUAUUACGGCGC | -0.331 ± 0.09 | 0.162 ± 0.1 |
